What all share (test): SEC-MALS
(SEC sorts molecules by how far they enter the pores of the column.)

Test [1] has as its target hsSMNΔ5(T274I)•Gemin2, Q16637;O14893. Conditions: chain shown with the change; 20°C; peak concentration 0.5 µM; parent: 231 (188-454).
Test [2] addresses hsSMNΔ5(H273R)•Gemin2, Q16637;O14893. The following applies: chain shown with the change; 20°C; peak concentration 0.5 µM; parent: 231 (188-454).
Test [3] addresses hsSMNΔ5(G279V)•Gemin2, Q16637;O14893. Conditions: chain shown with the change; 20°C; peak concentration 0.3 µM; parent: 231 (188-454).

B1: hsSMNΔ5•Gemin2 complex, O14893 T274I (protein)
chain 1: MAMSSGGSGGGVPEQEDSVLFRRGTGQSDDSDIWDDTALIKAYDKAVASFKHALKNGDICETSGKPKTTPKRKPAKKNKSQKKNTAASLQQWKVGDKCSAIWSEDGCIYPATIASIDFKRETCVVVYTGYGNREEQNLSDLLSPICEVANNIEQNAQENENESQVSTDESENSRSPGNKSDNIKPKSAPWNSFLPPPPPMPGPRLGPGKIIPPPPPICPDSLDDADALGSMLISWYMSGYHIGYYMGFRQNQKEGRCSHSLN
chain 2: MAWVPAESAVEELMPRLLPVEPCDLTEGFDPSVPPRTPQEYLRRVQIEAAQCPDVVVAQIDPKKLKRKQSVNISLSGCQPAPEGYSPTLQWQQQQVAQFSTVRQNVNKHRSHWKSQQLDSNVTMPKSEDEEGWKKFCLGEKLCADGAVGPATNESPGIDYVQIGFPPLLSIVSRMNQATVTSVLEYLSNWFGERDFTPELGRWLYALLACLEKPLLPEAHSLIRQLARRCSEVRLLVDSKDDERVPALNLLICLVSRYFDQRDLADEPS
On to B1, for which the other: SEC-MALS Mw in test [1] was determined as 198.

B2: hsSMNΔ5•Gemin2 complex, O14893 H273R (protein)
chain 1: MAMSSGGSGGGVPEQEDSVLFRRGTGQSDDSDIWDDTALIKAYDKAVASFKHALKNGDICETSGKPKTTPKRKPAKKNKSQKKNTAASLQQWKVGDKCSAIWSEDGCIYPATIASIDFKRETCVVVYTGYGNREEQNLSDLLSPICEVANNIEQNAQENENESQVSTDESENSRSPGNKSDNIKPKSAPWNSFLPPPPPMPGPRLGPGKIIPPPPPICPDSLDDADALGSMLISWYMSGYRTGYYMGFRQNQKEGRCSHSLN
chain 2: MAWVPAESAVEELMPRLLPVEPCDLTEGFDPSVPPRTPQEYLRRVQIEAAQCPDVVVAQIDPKKLKRKQSVNISLSGCQPAPEGYSPTLQWQQQQVAQFSTVRQNVNKHRSHWKSQQLDSNVTMPKSEDEEGWKKFCLGEKLCADGAVGPATNESPGIDYVQIGFPPLLSIVSRMNQATVTSVLEYLSNWFGERDFTPELGRWLYALLACLEKPLLPEAHSLIRQLARRCSEVRLLVDSKDDERVPALNLLICLVSRYFDQRDLADEPS
Regarding B2, the other: SEC-MALS Mw in test [2] is 266.

B3: hsSMNΔ5•Gemin2 complex, O14893 G279V (protein)
chain 1: MAMSSGGSGGGVPEQEDSVLFRRGTGQSDDSDIWDDTALIKAYDKAVASFKHALKNGDICETSGKPKTTPKRKPAKKNKSQKKNTAASLQQWKVGDKCSAIWSEDGCIYPATIASIDFKRETCVVVYTGYGNREEQNLSDLLSPICEVANNIEQNAQENENESQVSTDESENSRSPGNKSDNIKPKSAPWNSFLPPPPPMPGPRLGPGKIIPPPPPICPDSLDDADALGSMLISWYMSGYHTGYYMVFRQNQKEGRCSHSLN
chain 2: MAWVPAESAVEELMPRLLPVEPCDLTEGFDPSVPPRTPQEYLRRVQIEAAQCPDVVVAQIDPKKLKRKQSVNISLSGCQPAPEGYSPTLQWQQQQVAQFSTVRQNVNKHRSHWKSQQLDSNVTMPKSEDEEGWKKFCLGEKLCADGAVGPATNESPGIDYVQIGFPPLLSIVSRMNQATVTSVLEYLSNWFGERDFTPELGRWLYALLACLEKPLLPEAHSLIRQLARRCSEVRLLVDSKDDERVPALNLLICLVSRYFDQRDLADEPS
For the molecule B3, the other: SEC-MALS Mw in test [3] was determined as 384.
